This assay has as its target dominant negative RACB-T20N, split-YFP fusion for BiFC (barley (Hordeum vulgare)). The experiment in a line: split reporter.

Where only a bound is given, the exact number is not on record here.

Substance “RIPb, full length, split-YFP fusion for BiFC (natural protein)” had a BiFC signal relative to that with CA RACB of under 10%.

Values taken from doi:10.1101/750265.
